According to article PMC2141736:

Target: Schistosoma japonicum glutathione S-transferase (GST) (Schistosoma japonicum)
Test: cross-linking

Question: Which stoichiometry N does the source give for “Schistosoma japonicum glutathione S-transferase (GST) (enzyme)” here?
Answer: 2
